B4: FtsZ (natural protein, E. coli, UniProt P0A9A6 1-383, looked up)
chain: MFEPMELTNDAVIKVIGVGGGGGNAVEHMVRERIEGVEFFAVNTDAQALRKTAVGQTIQIGSGITKGLGAGANPEVGRNAADEDRDALRAALEGADMVFIAAGMGGGTGTGAAPVVAEVAKDLGILTVAVVTKPFNFEGKKRMAFAEQGITELSKHVDSLITIPNDKLLKVLGRGISLLDAFGAANDVLKGAVQGIAELITRPGLMNVDFADVRTVMSEMGYAMMGSGVASGEDRAEEAAEMAISSPLLEDIDLSGARGVLVNITAGFDLRLDEFETVGNTIRAFASDNATVVIGTSLDPDMNDELRVTVVATGIGMDKRPEITLVTNKQVQQPVMDRYQQHGMAPLTQEQKPVAKVVNDNAPQTAKEPDYLDIPAFLRKQAD
notes: FtsZ, E. coli, untagged, from pSEB160; also called FtsZ-WT; WT FtsZ
B5: 6×His-FtsZ (natural protein, E. coli, UniProt P0A9A6 1-383, looked up)
chain: MFEPMELTNDAVIKVIGVGGGGGNAVEHMVRERIEGVEFFAVNTDAQALRKTAVGQTIQIGSGITKGLGAGANPEVGRNAADEDRDALRAALEGADMVFIAAGMGGGTGTGAAPVVAEVAKDLGILTVAVVTKPFNFEGKKRMAFAEQGITELSKHVDSLITIPNDKLLKVLGRGISLLDAFGAANDVLKGAVQGIAELITRPGLMNVDFADVRTVMSEMGYAMMGSGVASGEDRAEEAAEMAISSPLLEDIDLSGARGVLVNITAGFDLRLDEFETVGNTIRAFASDNATVVIGTSLDPDMNDELRVTVVATGIGMDKRPEITLVTNKQVQQPVMDRYQQHGMAPLTQEQKPVAKVVNDNAPQTAKEPDYLDIPAFLRKQAD
notes: FtsZ, E. coli; 6×His-tagged ftsZ amplified from pSEB160 (pSD119); By the printed primer the six His codons follow the start codon and precede Phe2; also called 6×His-tagged FtsZ-FL; source: E. coli JS238 with pSD119, purified (Ni-NTA); not shown: His6, N-terminal, kept

How the values were obtained:
FtsZ = target: B4; experiment: BLI; competition: SlmA/SBS17-30mer on streptavidin tips; 4 µM FtsZ preincubated with various concentrations of ZipA185-328 (with GDP); settings: both partners purified
6×His-FtsZ [1] = target: B5; experiment: BLI; 6×His-FtsZ or variant (1 µM) immobilised on Ni-NTA tips; untagged SlmA preincubated with SBS17-30mer DNA in solution; 1× Pol buffer, room temperature; global fitting; settings: both partners purified
6×His-FtsZ-K190V = target: T1, 6×His-FtsZ-K190V (E. coli, UniProt P0A9A6 1-383, K190V); experiment: as above; settings: both partners purified
T1 construct: FtsZ, E. coli, His-tagged, with K190V; the construct is not described in the methods; Probably a derivative of pSD119 (N-terminal His6, full length)
T1 sequence (looked up): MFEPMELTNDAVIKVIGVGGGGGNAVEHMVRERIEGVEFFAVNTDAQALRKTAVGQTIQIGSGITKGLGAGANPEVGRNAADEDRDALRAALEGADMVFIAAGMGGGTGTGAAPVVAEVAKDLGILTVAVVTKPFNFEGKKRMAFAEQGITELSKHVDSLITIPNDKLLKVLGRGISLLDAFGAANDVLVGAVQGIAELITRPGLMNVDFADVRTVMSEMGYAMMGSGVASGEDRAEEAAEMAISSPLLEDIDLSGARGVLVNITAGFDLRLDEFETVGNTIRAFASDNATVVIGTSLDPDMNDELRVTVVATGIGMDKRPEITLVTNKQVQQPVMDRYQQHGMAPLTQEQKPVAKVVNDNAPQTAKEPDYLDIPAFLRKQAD

6×His-FtsZ [2] = target: T2, 6×His-FtsZ (E. coli, UniProt P0A9A6 1-383); experiment: BLI; 6×His-FtsZ (loaded at 1 µM) immobilised on Ni-NTA biosensor; untagged SlmA without SBS DNA in solution; 1× Pol buffer (50 mM HEPES-NaOH pH 8.0, 200 mM KCl, 10 mM MgCl2), room temperature; global fit (GraphPad Prism 5); settings: both partners purified
T2 construct: FtsZ of E. coli, full length (FtsZ-FL), with an N-terminal 6×His tag, from pSD119; By the primer His-FtsZ-SstI the chain begins M-HHHHHH and goes on with F2 of FtsZ (FEPMELT...); also called 6×His-tagged FtsZ-FL; source: E. coli JS238 with pSD119, arabinose induced, purified (Ni-NTA); not shown: His6, N-terminal, kept
T2 sequence (looked up): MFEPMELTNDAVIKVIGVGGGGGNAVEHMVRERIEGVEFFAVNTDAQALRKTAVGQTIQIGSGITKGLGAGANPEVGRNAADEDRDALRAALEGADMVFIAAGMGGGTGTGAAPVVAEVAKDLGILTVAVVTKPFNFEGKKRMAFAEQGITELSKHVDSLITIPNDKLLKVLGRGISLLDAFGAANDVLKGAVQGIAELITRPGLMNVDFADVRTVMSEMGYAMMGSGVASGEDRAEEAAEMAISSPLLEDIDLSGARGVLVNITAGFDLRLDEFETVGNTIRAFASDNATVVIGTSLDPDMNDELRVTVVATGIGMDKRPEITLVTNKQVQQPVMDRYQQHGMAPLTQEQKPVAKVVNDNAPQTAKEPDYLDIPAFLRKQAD

6×His-FtsZ [3] = target: T2, 6×His-FtsZ; experiment: BLI; 6×His-FtsZ (loaded at 1 µM) immobilised on Ni-NTA biosensor; untagged SlmA preincubated with SBS-14mer DNA in solution; 1× Pol buffer (50 mM HEPES-NaOH pH 8.0, 200 mM KCl, 10 mM MgCl2), room temperature; global fit (GraphPad Prism 5); settings: both partners purified
6×His-FtsZ [4] = target: T2, 6×His-FtsZ; experiment: BLI; 6×His-FtsZ (loaded at 1 µM) immobilised on Ni-NTA biosensor; untagged SlmA preincubated with SBS-18mer DNA in solution; 1× Pol buffer (50 mM HEPES-NaOH pH 8.0, 200 mM KCl, 10 mM MgCl2), room temperature; global fit (GraphPad Prism 5); settings: both partners purified
6×His-FtsZ [5] = target: T2, 6×His-FtsZ; experiment: BLI; 6×His-FtsZ (loaded at 1 µM) immobilised on Ni-NTA biosensor; untagged SlmA preincubated with SBS17-20mer DNA in solution; 1× Pol buffer (50 mM HEPES-NaOH pH 8.0, 200 mM KCl, 10 mM MgCl2), room temperature; global fit (GraphPad Prism 5); settings: both partners purified
6×His-FtsZ [6] = target: T2, 6×His-FtsZ; experiment: BLI; 6×His-FtsZ (loaded at 1 µM) immobilised on Ni-NTA biosensor; untagged SlmA preincubated with SBS17-30mer DNA in solution; 1× Pol buffer (50 mM HEPES-NaOH pH 8.0, 200 mM KCl, 10 mM MgCl2), room temperature; global fit (GraphPad Prism 5); settings: both partners purified
[7] = target: the molecule itself; experiment: negative-stain electron microscopy of polymers; FtsZ or variant 2 µM with 1 mM GTP in Pol buffer (50 mM HEPES-NaOH pH 8.0, 200 mM KCl, 10 mM MgCl2), room temperature 5 min, 1% uranyl acetate; self-assembly into filaments

B1: ZipA_(185–328) (domain or fragment)
chain: not shown
notes: amplified from chromosomal DNA; also called C-terminal domain of ZipA; source: expressed from pSD198 (pQE80 derivative)
In the case of B1, the “percent decrease of the FtsZ binding signal on SlmA/SBS17-30mer at a 1:1 ratio of FtsZ to ZipA185-328” value (FtsZ) is reported as ~30%.

B2: untagged SlmA (natural protein, E. coli, UniProt P0C093 1-198, looked up)
chain: MAEKQTAKRNRREEILQSLALMLESSDGSQRITTAKLAASVGVSEAALYRHFPSKTRMFDSLIEFIEDSLITRINLILKDEKDTTARLRLIVLLLLGFGERNPGLTRILTGHALMFEQDRLQGRINQLFERIEAQLRQVLREKRMREGEGYTTDETLLASQILAFCEGMLSRFVRSEFKYRPTDDFDARWPLIAAQLQ
notes: SlmA, E. coli; Used with or without SBS DNA on 6×His-FtsZ tips; also called SlmA (untagged version); source: E. coli BL21 (λDE3)/pLysS with pSUMO-SlmA, purified (Ni-NTA; tag cleaved with Ulp1, flow-through collected)
In the case of B2, the Kd (6×His-FtsZ [1]) is reported as 210 nM and the binding result (6×His-FtsZ-K190V) is reported as “binds”.

B3: SlmA (untagged version) (natural protein, E. coli, UniProt P0C093 1-198, looked up)
chain: MAEKQTAKRNRREEILQSLALMLESSDGSQRITTAKLAASVGVSEAALYRHFPSKTRMFDSLIEFIEDSLITRINLILKDEKDTTARLRLIVLLLLGFGERNPGLTRILTGHALMFEQDRLQGRINQLFERIEAQLRQVLREKRMREGEGYTTDETLLASQILAFCEGMLSRFVRSEFKYRPTDDFDARWPLIAAQLQ
notes: SlmA of E. coli; The forward primer slmA-SUMO-F begins at the second codon (GCA, Ala2), so the cleaved protein probably lacks the first methionine; also called SlmA-WT; nucleoid occlusion factor SlmA; source: E. coli BL21 (λDE3)/pLysS with pSUMO-SlmA, purified (Ni-NTA; H-SUMO tag cleaved with Ulp1, tag and protease removed on Ni-NTA); not shown: His-SUMO (H-SUMO), N-terminal, cleaved
Binder B3 has a Kd (6×His-FtsZ [2]) of 21000 nM, a koff (6×His-FtsZ [2]) of 0.149 s⁻¹ and a kon (6×His-FtsZ [2]) of 7100 M⁻¹ s⁻¹. For the same binder, the Kd (6×His-FtsZ [3]) was 206 nM, the koff (6×His-FtsZ [3]) was 0.0057 s⁻¹ and the kon (6×His-FtsZ [3]) was 27500 M⁻¹ s⁻¹. For the same binder, the Kd (6×His-FtsZ [4]) was 309 nM, the koff (6×His-FtsZ [4]) was 0.0067 s⁻¹ and the kon (6×His-FtsZ [4]) was 21600 M⁻¹ s⁻¹. It also gave a Kd (6×His-FtsZ [5]) of 789 nM, a koff (6×His-FtsZ [5]) of 0.0143 s⁻¹ and a kon (6×His-FtsZ [5]) of 18100 M⁻¹ s⁻¹. It also gave a koff (6×His-FtsZ [6]) of 0.0155 s⁻¹ and a kon (6×His-FtsZ [6]) of 74000 M⁻¹ s⁻¹.

B4: binds [7].

B5: binds [7].

B6: FtsZ-D86N (natural protein, E. coli, UniProt P0A9A6 1-383, looked up)
chain: MFEPMELTNDAVIKVIGVGGGGGNAVEHMVRERIEGVEFFAVNTDAQALRKTAVGQTIQIGSGITKGLGAGANPEVGRNAADEDRNALRAALEGADMVFIAAGMGGGTGTGAAPVVAEVAKDLGILTVAVVTKPFNFEGKKRMAFAEQGITELSKHVDSLITIPNDKLLKVLGRGISLLDAFGAANDVLKGAVQGIAELITRPGLMNVDFADVRTVMSEMGYAMMGSGVASGEDRAEEAAEMAISSPLLEDIDLSGARGVLVNITAGFDLRLDEFETVGNTIRAFASDNATVVIGTSLDPDMNDELRVTVVATGIGMDKRPEITLVTNKQVQQPVMDRYQQHGMAPLTQEQKPVAKVVNDNAPQTAKEPDYLDIPAFLRKQAD
notes: FtsZ, E. coli, untagged, with D86N; pSEB160 derivative
B6: binds [7].

B7: FtsZ-K190V (natural protein, E. coli, UniProt P0A9A6 1-383, looked up)
chain: MFEPMELTNDAVIKVIGVGGGGGNAVEHMVRERIEGVEFFAVNTDAQALRKTAVGQTIQIGSGITKGLGAGANPEVGRNAADEDRDALRAALEGADMVFIAAGMGGGTGTGAAPVVAEVAKDLGILTVAVVTKPFNFEGKKRMAFAEQGITELSKHVDSLITIPNDKLLKVLGRGISLLDAFGAANDVLVGAVQGIAELITRPGLMNVDFADVRTVMSEMGYAMMGSGVASGEDRAEEAAEMAISSPLLEDIDLSGARGVLVNITAGFDLRLDEFETVGNTIRAFASDNATVVIGTSLDPDMNDELRVTVVATGIGMDKRPEITLVTNKQVQQPVMDRYQQHGMAPLTQEQKPVAKVVNDNAPQTAKEPDYLDIPAFLRKQAD
notes: FtsZ, E. coli, untagged, with K190V; pSEB160 derivative
B7: binds [7].

B8: 6×His-FtsZ360 (domain or fragment, E. coli, UniProt P0A9A6 1-360, looked up)
chain: MFEPMELTNDAVIKVIGVGGGGGNAVEHMVRERIEGVEFFAVNTDAQALRKTAVGQTIQIGSGITKGLGAGANPEVGRNAADEDRDALRAALEGADMVFIAAGMGGGTGTGAAPVVAEVAKDLGILTVAVVTKPFNFEGKKRMAFAEQGITELSKHVDSLITIPNDKLLKVLGRGISLLDAFGAANDVLKGAVQGIAELITRPGLMNVDFADVRTVMSEMGYAMMGSGVASGEDRAEEAAEMAISSPLLEDIDLSGARGVLVNITAGFDLRLDEFETVGNTIRAFASDNATVVIGTSLDPDMNDELRVTVVATGIGMDKRPEITLVTNKQVQQPVMDRYQQHGMAPLTQEQKPVAKVVND
notes: FtsZ, E. coli, truncated by two stop codons after codon 360; lacks the conserved C-terminal tail; source: E. coli JS238 with pSD119-Z360, purified (Ni-NTA); not shown: His6, N-terminal, kept
B8: binds [7].

Reference: article PMC4117426, “SlmA Antagonism of FtsZ Assembly Employs a Two-pronged Mechanism like MinCD” (PLoS Genetics, 2014)
